For series [1], the target named is T1, hNRP2_ECD, human neuropilin-2 extracellular domain (Homo sapiens, UniProt O60462).
T1 construct: neuropilin-2, human, extracellular domain
Description: BLI; affinity of aNRP2 mAbs to hNRP2_ECD, shown as KD; as previously described; mean ± SEM of at least 3 experiments. Particulars: both partners purified. On the technique in general: Biolayer interferometry detects binding as a change in optical thickness at a sensor tip.

In series [2] the target is T2, PLXNA1-LBD, recombinant human plexinA1 ligand-binding domains (human, UniProt Q9UIW2).
T2 construct: the DNA encoded amino acids 1-710 of NP_115618.3 (signal peptide removed on secretion); The final cryo-EM model holds only the SEMA and PSI1 domains; also called hPLXNA1 LBD; source: Expi293F, transfected, purified from culture media (HiTrap MabSelect column)
As to the kind of experiment: BLI; Octet Red96e; Fab captured on streptavidin tips by biotinylated anti-LC-kappa-murine antibody; PLXNA1 ECD or LBD in solution at 1.85-1350 nM; global fit, 1:1 model. The settings on record: both partners purified.

The target in series [3] is T3, PLXNA1-ECD, recombinant human plexinA1 full extracellular domains (Homo sapiens, UniProt Q9UIW2).
T3 construct: plexinA1, human, extracellular domains, aa 27-1244; the DNA encoded amino acids 1-1244 of NP_115618.3 (signal peptide removed on secretion); also called hPLXNA1 ECD; source: Expi293F, transfected, purified from culture media (HiTrap MabSelect column)
The description is as above. Particulars: both partners purified.

Series [4] concerns the molecule itself. As to the kind of experiment: cryo-EM structure; purified complex of PLXNA1-LBD and aPLXNA1-19-43 Fab; 3.33 Å.

T1 sequence (O60462 21-864): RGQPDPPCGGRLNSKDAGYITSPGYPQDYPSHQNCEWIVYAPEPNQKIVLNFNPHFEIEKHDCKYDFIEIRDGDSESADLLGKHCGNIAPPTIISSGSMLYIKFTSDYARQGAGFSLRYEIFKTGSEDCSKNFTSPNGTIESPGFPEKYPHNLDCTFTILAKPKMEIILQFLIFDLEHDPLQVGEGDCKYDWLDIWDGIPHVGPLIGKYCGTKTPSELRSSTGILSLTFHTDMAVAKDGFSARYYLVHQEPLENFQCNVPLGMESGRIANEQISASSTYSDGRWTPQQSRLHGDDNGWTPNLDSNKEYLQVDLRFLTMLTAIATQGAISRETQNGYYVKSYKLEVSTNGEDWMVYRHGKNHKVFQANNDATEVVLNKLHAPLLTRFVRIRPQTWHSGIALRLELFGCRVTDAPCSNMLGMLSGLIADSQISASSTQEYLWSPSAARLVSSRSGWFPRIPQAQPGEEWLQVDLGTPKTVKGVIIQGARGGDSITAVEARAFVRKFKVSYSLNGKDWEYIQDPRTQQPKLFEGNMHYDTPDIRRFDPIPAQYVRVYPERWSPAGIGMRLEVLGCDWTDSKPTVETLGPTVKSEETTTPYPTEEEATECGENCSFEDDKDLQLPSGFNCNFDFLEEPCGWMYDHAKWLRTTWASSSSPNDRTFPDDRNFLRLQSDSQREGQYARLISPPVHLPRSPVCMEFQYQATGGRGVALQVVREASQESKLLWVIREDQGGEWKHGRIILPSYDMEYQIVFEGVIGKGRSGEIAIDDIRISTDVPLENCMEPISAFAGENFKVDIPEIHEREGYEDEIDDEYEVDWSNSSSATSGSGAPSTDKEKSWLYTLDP

B1: aNRP2-b2cL, anti-NRP2 mAb (antibody, V domains shown)
VH: QVRLQQPGAELVMPGASVKLSCKASGYTFTSYWMHWVKQRPGQGLEWIGVIHPNSASTFYNERFKTKATLTVDRSSSTAYMQLSSLTSEDSAVYYCSRPGTVRRSDYWGQGTTLTVSS
VL: DVLMTQSPLSLSVSLGDQASISCRSSQNIVHSTGNTYLEWYLQKPGQSPKLLIYKVSNRFSGVPDRFSGSGSGTDFTLKISRVEAEDLGVYYCFQGSHVPWTFGGGTKLEIK
notes: also called Nb2cL
In the case of B1, the Kd – broadly, a measure of binding affinity in units of concentration – in series [1] came out at 0.33 nM.

B2: aPLXNA1-19-43 Fab (Fab, V domains shown)
VH: EVQLQQSGPELVKPGASVKISCKASGYKFTENYMDWVKQSHGESLEWIGDISPDNGDTSYNQKFRDKATLTVDKSSSTAYMELRSLTSEDSAVYYCAQIIYYDYVGYALDYWGQGTSVTVSS
VL: QIVLTQSPAILSASPGEKVTMSCSVSSSITYMHWYQQKPGTSPKRWIYDTSKLASGVPARFSGSGSGTSFSLTISNMEAEDAATYYCHQRSSYPYSFGGGTKLEIK
notes: VH of aPLXNA1-19-43; also in the deposited structure; constant part of the Fab heavy chain, mouse IgG1 backbone; VL (kappa) of aPLXNA1-19-43; mouse kappa light chain constant region (Fab captured by an anti-LC-kappa-murine antibody); Fab of the mAb aPLXNA1-19-43, the anti-PLXNA1 half of m6; also called aPLXNA1 Fab 19 to 43; aPLXNA1 Fab-P1943; source: Expi293F, transfected, purified from culture …
B2: the Kd came out at 5.99 ± 1.14 nM in series [2] and 2.37 ± 0.78 nM in series [3].

B3: PLXNA1-LBD, recombinant human plexinA1 ligand-binding domains (domain or fragment, UniProt Q9UIW2 27-710, looked up)
chain: EAGLPRAGGGSQPPFRTFSASDWGLTHLVVHEQTGEVYVGAVNRIYKLSGNLTLLRAHVTGPVEDNEKCYPPPSVQSCPHGLGSTDNVNKLLLLDYAANRLLACGSASQGICQFLRLDDLFKLGEPHHRKEHYLSSVQEAGSMAGVLIAGPPGQGQAKLFVGTPIDGKSEYFPTLSSRRLMANEEDADMFGFVYQDEFVSSQLKIPSDTLSKFPAFDIYYVYSFRSEQFVYYLTLQLDTQLTSPDAAGEHFFTSKIVRLCVDDPKFYSYVEFPIGCEQAGVEYRLVQDAYLSRPGRALAHQLGLAEDEDVLFTVFAQGQKNRVKPPKESALCLFTLRAIKEKIKERIQSCYRGEGKLSLPWLLNKELGCINSPLQIDDDFCGQDFNQPLGGTVTIEGTPLFVDKDDGLTAVAAYDYRGRTVVFAGTRSGRIRKILVDLSNPGGRPALAYESVVAQEGSPILRDLVLSPNHQYLYAMTEKQVTRVPVESCVQYTSCELCLGSRDPHCGWCVLHSICSRRDACERADEPQRFAADLLQCVQLTVQPRNVSVTMSQVPLVLQAWNVPDLSAGVNCSFEDFTESESVLEDGRIHCRSPSAREVAPITRGQGDQRVVKLYLKSKETGKKFASVDFVFYNCSVHQSCLSCVNGSFPCHWCKYRHVCTHNVADCAFLEGRVNVSEDCPQIL
notes: the DNA encoded amino acids 1-710 of NP_115618.3 (signal peptide removed on secretion); The final cryo-EM model holds only the SEMA and PSI1 domains; also called hPLXNA1 LBD; source: Expi293F, transfected, purified from culture media (HiTrap MabSelect column)
B3: in series [4], the stoichiometry N (usually the number of molecules, sites or subunits per partner or assembly) is 2.
